B1: αNP-VHH1-HA (VHH)
VHH: QVQLQESGGGLVQAGGSLRLTCALSERTSTSYAQGWFRQPPGKEREFVASLRTHDGNTHYTDSVKGRFTISRDNAENTLYLQMNSLKTEDTAVYYCAASLGYSGAYASGYDYWGQGTQVTVSS
notes: also called anti-NP-VHH1-HA; HA-tagged anti-NP-VHH1; source: 293T, transfected (pCAGGS), in lysate
B2: αNP-VHH1-Alexa Fluor 647 (VHH)
VHH: B1 VHH

Columns and labels:
[1] = biological target: NP-Renilla wild type (NP of influenza virus A/WSN/33) (Influenza A virus A/WSN/33, UniProt P15682); test: LUMIER; conditions: partners not purified
[2] = biological target: NP of influenza virus A/WSN/33 in infected A549 cells (Influenza A virus A/WSN/33, UniProt P15682); test: flow cytometry on cells; conditions: one partner purified
Chain of NP of influenza virus A/WSN/33 in infected A549 cells (P15682 whole entry): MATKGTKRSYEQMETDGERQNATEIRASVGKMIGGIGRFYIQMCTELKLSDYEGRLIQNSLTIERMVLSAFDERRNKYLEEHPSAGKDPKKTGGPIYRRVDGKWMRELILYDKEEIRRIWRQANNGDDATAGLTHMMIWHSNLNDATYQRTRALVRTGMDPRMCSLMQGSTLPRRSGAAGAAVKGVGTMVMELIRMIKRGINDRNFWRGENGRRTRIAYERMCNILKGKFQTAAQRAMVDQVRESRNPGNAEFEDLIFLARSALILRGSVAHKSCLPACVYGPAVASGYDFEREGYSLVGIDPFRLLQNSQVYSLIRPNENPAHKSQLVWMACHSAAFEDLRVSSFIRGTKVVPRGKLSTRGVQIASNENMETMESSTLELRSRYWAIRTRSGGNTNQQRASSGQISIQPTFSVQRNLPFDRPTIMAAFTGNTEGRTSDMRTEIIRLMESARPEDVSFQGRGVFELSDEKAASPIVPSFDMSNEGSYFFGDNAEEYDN

[3] = biological target: NP of influenza virus A/PR/8/34 in infected A549 cells (Influenza A virus A/PR/8/34, UniProt P03466); test: flow cytometry on cells; conditions: one partner purified
Chain of NP of influenza virus A/PR/8/34 in infected A549 cells (P03466 whole entry): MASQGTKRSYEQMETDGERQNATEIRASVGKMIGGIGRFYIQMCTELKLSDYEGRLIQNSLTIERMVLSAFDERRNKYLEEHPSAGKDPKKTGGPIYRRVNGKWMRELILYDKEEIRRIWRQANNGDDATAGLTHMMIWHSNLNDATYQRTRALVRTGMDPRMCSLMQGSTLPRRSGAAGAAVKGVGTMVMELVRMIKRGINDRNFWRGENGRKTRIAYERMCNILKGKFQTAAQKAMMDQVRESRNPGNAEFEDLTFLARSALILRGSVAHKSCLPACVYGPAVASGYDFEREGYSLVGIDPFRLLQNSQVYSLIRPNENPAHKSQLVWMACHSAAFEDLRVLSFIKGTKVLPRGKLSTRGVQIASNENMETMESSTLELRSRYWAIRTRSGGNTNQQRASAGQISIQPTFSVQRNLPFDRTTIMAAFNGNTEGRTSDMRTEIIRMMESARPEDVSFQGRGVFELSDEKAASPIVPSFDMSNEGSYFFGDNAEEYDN

Chain of NP-Renilla wild type (NP of influenza virus A/WSN/33) (P15682 whole entry): as the sequence (P15682 whole entry) above

| Binder | binding result [1] | binding result [2] | binding result [3] |
| --- | --- | --- | --- |
| B1 | binds |  |  |
| B2 |  | binds | binds |
